Earlier results in article PMC4223872.

Biological target: Calmodulin C-lobe (Homo sapiens) (UniProt P0DP23)
Assay: ITC

Chain of Nav1.5 1489-1522 (Q14524 1489-1522): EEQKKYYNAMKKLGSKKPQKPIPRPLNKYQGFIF

Kd: 19 µM
Substance: Nav1.5 1489-1522 (from UniProt Q14524)
